Reference: patent publication US11111484B2, “Streptococcus bacteriophage lysins for detection and treatment of gram positive bacteria” (priority 2011, dated 2021)
“Also recorded” adds a separate entry of the source.

Experiments:
S. pyogenes A486 = assay: ΔPlySs1 OD600 lysis, 1 hr, optimal buffering conditions; format: cell-based, Streptococcus pyogenes
B. subtilis SL4 = assay: as above; format: cell-based, Bacillus subtilis
S. gordonii 10558 = assay: as above; format: cell-based, Streptococcus gordonii
E. faecalis V583 = assay: as above; format: cell-based, Enterococcus faecalis
S. simulans TNK3 = assay: as above; format: cell-based, Staphylococcus simulans
M. luteus 4698 = assay: as above; format: cell-based
S. suis strain 7711 = assay: ΔPlySs1 biochemical characterization, turbidity reduction (OD600); format: cell-based, Streptococcus suis; conditions: for activity after 6 hours at 40° C. / activity after 6 hours at 45° C.: 6-hr incubation; for pH of maximal activity in bis-tris-propane: BTP 40 mM, pH 7.0-9.7, 110 μg/ml; for temperature at which activity completely abolished: held 30 min at 35° C.-60° C.; for effect of DTT on activity: pre-incubated 1 hr with 5 mM DTT
Experimental: The optimal biochemical conditions for PlySs1 were determined against live cells of the encoding S. suis strain (7711). For these experiments, activity was gauged through the degree of turbidity reduction (OD600) of an aqueous bacterial suspension following the addition of lysin. The pH-dependence of the enzyme was first addressed using two buffer sets with adjacent pH ranges, citrate/phosphate: 4.6-8.0; and bis-tris-propane (BTP): 7.0-9.7. An extended spectrum of lysis was observed, from 5.4-9.4 (FIG. 11A). In BTP, lysis was maximal from 8.2-9.0; at commensurate pH-values, however, the magnitude of the OD-drop was slightly more pronounced in citrate/phosphate (FIG. 11B).
The thermal stability of PlySs1 was examined by incubating the enzyme at various elevated temperatures prior to use (the OD-drop experiment itself was always conducted at 37° C.). When held at 35° C.-60° C. for 30 min, lysin activity was virtually unaffected until 50° C., at which point it was completely abolished (FIG. 14A). […] The latter corresponds to typical porcine body temperature.

S. sobrinus 6715 = assay: ΔPlySs1 OD600 lysis, 1 hr, optimal buffering conditions; format: cell-based, Streptococcus sobrinus
S. rattus BHT = assay: as above; format: cell-based, Streptococcus rattus
MRSA MW2 = assay: CFU studies, bactericidal effect; format: cell-based, Staphylococcus aureus; conditions: 128 μg/ml PlySs2, 1 hour
Experimental: (§1) Log-phase bacteria were resuspended in buffer A to an OD600 of 0.1 (=0.5 McFarland≈10^8 CFU/ml). PlySs2 was added at 128 μg/ml to polypropylene microtiter plates (Costar) in triplicate for each test organism. Plates were sealed and incubated at 37° C. with shaking every 5 minutes for 1 hour. After 1 hour of incubation, cells were serially diluted in 10-fold increments and plated on BHI. Triplicate controls for each strain were performed with buffer B replacing PlySs2.

S. aureus strains = assay: PlySs2 lytic activity against species and strains (FIG. 25); format: cell-based, Staphylococcus aureus; conditions: all tested S. aureus strains; 32 μg/ml, 60 minutes
Experimental: (§2) FIG. 25 provides PlySs2 activity against different species and strains. Log-phase cultures were exposed to 32 μg/ml PlySs2 for 60 minutes in phosphate buffer. The final OD600 of the treated samples were divided by the final OD600 of the untreated samples to generate the normalized values above. Multiple Staphylococci (including, but not limited to: MRSA, MSSA, and VISA), Streptococci, Listeria, Enterococci, and Bacilli were tested for susceptibility to PlySs2 activity. Escherichia and Pseudomonas were tested as Gram-negative controls.

MSSA strain 8325 = assay: resistance assay, exposure to incrementally increasing concentrations; format: cell-based, Staphylococcus aureus; conditions: MSSA 8325; concentration doubled daily from 1/32 to 4× MIC over 8 days
S. agalactiae = assay: CFU studies, bactericidal effect; format: cell-based, Streptococcus agalactiae; conditions: 128 μg/ml PlySs2, 60 mins
Experimental: as §1

S. pyogenes strains = assay: PlySs2 lytic activity against species and strains (FIG. 25); format: cell-based, Streptococcus pyogenes; conditions: S. pyogenes serotypes M1, M3, M4, M6, M18, M49, variant without M protein
Experimental: as §2

B1: ΔPlySs1: truncated PlySs1 lysin, SEQ ID NO:2, N-terminal 254 amino acids: only N-terminal enzymatic and central binding domains (protein, listed as Streptococcus suis)
chain: MTINLETSIRWMSDRVGKVSYSMDYRNGPNSYDCSSAVYYALMAGGAISAGWAVNTEYMHDWLIRNGYVLVAENKPFNAQRHDVCILGKRGYSSGAGGHVVIFVDNVNVIHCNYARNGISIDNYNQVHRGMYYYLYRPANQPSISNKSLDQLVKETLAGVHGNGDTRKASLGSQYEAVMAVINGKASASEKSDEELAREVLAGKHGAGEDRKRSLGPRYEPVQAKVNELLKAKEKPSETAKNEPQTVQFKEDGDL
S. pyogenes A486; 6.5 μg/ml
  lysis value after 1 hr (treated/untreated OD600 ratio): 0.12
S. pyogenes A486; 13 μg/ml
  lysis value after 1 hr (treated/untreated OD600 ratio): 0.13
S. pyogenes A486; 30 μg/ml
  lysis value after 1 hr (treated/untreated OD600 ratio): 0.13
S. pyogenes A486; 65 μg/ml
  lysis value after 1 hr (treated/untreated OD600 ratio): 0.11
S. pyogenes A486; 130 μg/ml
  lysis value after 1 hr (treated/untreated OD600 ratio): 0.10
B. subtilis SL4; 6.5 μg/ml
  lysis value after 1 hr (treated/untreated OD600 ratio): 1.07
B. subtilis SL4; 13 μg/ml
  lysis value after 1 hr (treated/untreated OD600 ratio): 1.05
B. subtilis SL4; 30 μg/ml
  lysis value after 1 hr (treated/untreated OD600 ratio): 1.04
B. subtilis SL4; 65 μg/ml
  lysis value after 1 hr (treated/untreated OD600 ratio): 1.03
B. subtilis SL4; 130 μg/ml
  lysis value after 1 hr (treated/untreated OD600 ratio): 0.96
S. gordonii 10558; 6.5 μg/ml
  lysis value after 1 hr (treated/untreated OD600 ratio): 0.76
S. gordonii 10558; 13 μg/ml
  lysis value after 1 hr (treated/untreated OD600 ratio): 0.32
S. gordonii 10558; 30 μg/ml
  lysis value after 1 hr (treated/untreated OD600 ratio): 0.19
S. gordonii 10558; 65 μg/ml
  lysis value after 1 hr (treated/untreated OD600 ratio): 0.09
S. gordonii 10558; 130 μg/ml
  lysis value after 1 hr (treated/untreated OD600 ratio): 0.06
E. faecalis V583; 6.5 μg/ml
  lysis value after 1 hr (treated/untreated OD600 ratio): 0.98
E. faecalis V583; 13 μg/ml
  lysis value after 1 hr (treated/untreated OD600 ratio): 0.93
E. faecalis V583; 30 μg/ml
  lysis value after 1 hr (treated/untreated OD600 ratio): 0.84
E. faecalis V583; 65 μg/ml
  lysis value after 1 hr (treated/untreated OD600 ratio): 0.71
E. faecalis V583; 130 μg/ml
  lysis value after 1 hr (treated/untreated OD600 ratio): 0.52
S. simulans TNK3; 6.5 μg/ml
  lysis value after 1 hr (treated/untreated OD600 ratio): 0.96
S. simulans TNK3; 13 μg/ml
  lysis value after 1 hr (treated/untreated OD600 ratio): 1.00
S. simulans TNK3; 30 μg/ml
  lysis value after 1 hr (treated/untreated OD600 ratio): 1.00
S. simulans TNK3; 65 μg/ml
  lysis value after 1 hr (treated/untreated OD600 ratio): 1.00
S. simulans TNK3; 130 μg/ml
  lysis value after 1 hr (treated/untreated OD600 ratio): 0.96
M. luteus 4698; 6.5 μg/ml
  lysis value after 1 hr (treated/untreated OD600 ratio): 0.84
M. luteus 4698; 13 μg/ml
  lysis value after 1 hr (treated/untreated OD600 ratio): 0.90
M. luteus 4698; 30 μg/ml
  lysis value after 1 hr (treated/untreated OD600 ratio): 0.83
M. luteus 4698; 65 μg/ml
  lysis value after 1 hr (treated/untreated OD600 ratio): 0.87
M. luteus 4698; 130 μg/ml
  lysis value after 1 hr (treated/untreated OD600 ratio): 0.82
S. suis strain 7711; 0-1000 mM NaCl
  effect of NaCl on bacteriolysis: bacteriolysis varied little
S. suis strain 7711
  activity after 6 hours at 40° C.: maintained essentially native activity
  activity after 6 hours at 45° C.: some loss of activity, though not complete
  pH of maximal activity in bis-tris-propane: 9.0
  temperature at which activity completely abolished: complete loss of activity was observed between the 45 °C and 50 °C samples
  effect of DTT on activity: activity was unchanged
S. suis strain 7711; listed as PlySs1
  activity after 6 hours at 40° C.: unaffected
  activity after 6 hours at 45° C.: partial decrease in activity
  pH of maximal activity in bis-tris-propane: 8.2-9.0
  temperature at which activity completely abolished: 50 °C
  effect of DTT on activity: did not negatively impact activity
S. suis strain 7711; citrate/phosphate 4.6-8.0 and BTP 7.0-9.7
  pH spectrum of lysis: 5.4-9.4
S. suis strain 7711; excess EDTA
  effect of EDTA on activity: did not negatively impact activity
S. sobrinus 6715; 6.5 μg/ml
  lysis value after 1 hr (treated/untreated OD600 ratio): 0.64
S. sobrinus 6715; 13 μg/ml
  lysis value after 1 hr (treated/untreated OD600 ratio): 0.48
S. sobrinus 6715; 30 μg/ml
  lysis value after 1 hr (treated/untreated OD600 ratio): 0.39
S. sobrinus 6715; 65 μg/ml
  lysis value after 1 hr (treated/untreated OD600 ratio): 0.32
S. sobrinus 6715; 130 μg/ml
  lysis value after 1 hr (treated/untreated OD600 ratio): 0.23
S. rattus BHT; 6.5 μg/ml
  lysis value after 1 hr (treated/untreated OD600 ratio): 0.82
S. rattus BHT; 13 μg/ml
  lysis value after 1 hr (treated/untreated OD600 ratio): 0.84
S. rattus BHT; 30 μg/ml
  lysis value after 1 hr (treated/untreated OD600 ratio): 0.82
S. rattus BHT; 65 μg/ml
  lysis value after 1 hr (treated/untreated OD600 ratio): 0.83
S. rattus BHT; 130 μg/ml
  lysis value after 1 hr (treated/untreated OD600 ratio): 0.79

B2: PlySs2: Streptococcus suis prophage lysin, SEQ ID NO:3; N-terminal CHAP domain and C-terminal SH3-type 5 domain (protein, listed as Streptococcus suis)
chain: MTTVNEALNNVRAQVGSGVSVGNGECYALASWYERMISPDATVGLGAGVGWVSGAIGDTISAKNIGSSYNWQANGWTVSTSGPFKAGQIVTLGATPGNPYGHVVIVEAVDGDRLTILEQNYGGKRYPVRNYYSAASYRQQVVHYITPPGTVAQSAPNLAGSRSYRETGTMTVTVDALNVRRAPNTSGEIVAVYKRGESFDYDTVIIDVNGYVWVSYIGGSGKRNYVATGATKDGKRFGNAWGTFK
MRSA MW2
  reduction of colony forming units (CFUs): 5 logs
S. aureus strains
  susceptibility to PlySs2 lysis: highly susceptible
MSSA strain 8325
  development of resistance: Neither S. aureus strain developed resistance; also recorded: None of MRSA strain MW2, MSSA strain 8325, nor S. pyogenes strain 5005 developed resistance
S. agalactiae
  reduction in CFU counts: dramatically reduced
S. pyogenes strains
  lytic activity: had activity against all strains of S. pyogenes
